Measured values as given in FireProtDB (doi:10.1074/jbc.272.30.18686).

Conditions: Escherichia coli (strain K12); pH 3.2; Thermal; CD; glycine-HCl 10 mM; reversible: yes; whole UniProt chain shown

B1: Ribonuclease HI wild type, P0A7Y4 (protein)
chain: MLKQVEIFTDGSCLGNPGPGGYGAILRYRGREKTFSAGYTRTTNNRMELMAAIVALEALKEHCEVILSTDSQYVRQGITQWIHNWKKRGWKTADKKPVKNVDLWQRLDAALGQHQIKWEWVKGHAGHPENERCDELARAAAMNPTLEDTGYQVEV
Tm: 53 °C | unfolding enthalpy (van 't Hoff): 99.2 kcal/mol
